These results are taken from PMC6901335.

This test deals with Recombinant MFG-E8 Protein (unlabelled, bound to NL4.3-GFP VLPs) (not stated (human or mouse recombinant protein bought)) (UniProt P21956). In words: flow cytometry of viral-like particles; 1 × 10^4 NL4.3-GFP VLPs in 20 μl of 1% BSA/PBS or 1 × HBSS (1 mM Ca2+, 2 mM Mg2+, 1 mM Mn2+, 0.5% fatty acid free BSA) with MFG-E8 (5 μg/ml) and integrin αvβ3 (5 μg/ml) on ice for 30 min; bound proteins detected by αv and MFG-E8 antibodies.
Sequence of UniProt P21956 (P21956 23-463): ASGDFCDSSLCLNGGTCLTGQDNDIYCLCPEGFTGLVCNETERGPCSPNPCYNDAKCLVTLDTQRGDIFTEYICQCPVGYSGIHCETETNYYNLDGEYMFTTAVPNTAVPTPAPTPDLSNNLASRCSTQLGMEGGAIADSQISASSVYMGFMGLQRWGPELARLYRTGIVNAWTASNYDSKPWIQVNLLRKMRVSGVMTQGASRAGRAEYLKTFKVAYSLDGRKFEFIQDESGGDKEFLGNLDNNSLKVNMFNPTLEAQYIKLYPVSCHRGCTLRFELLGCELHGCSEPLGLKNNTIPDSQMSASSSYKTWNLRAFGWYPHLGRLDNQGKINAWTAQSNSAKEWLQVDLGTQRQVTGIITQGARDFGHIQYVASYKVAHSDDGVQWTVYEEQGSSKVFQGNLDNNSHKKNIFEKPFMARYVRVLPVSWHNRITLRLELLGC

Take “Recombinant Human Integrin alpha V beta 3 Protein (from UniProt P06756 31-1048; P05106 27-718) (receptor)”: the percent of VLPs αvβ3/MFG-E8 positive is 80%.
